Assay results reported in article PMC12102759.

B1: NYNRIN peptide 1030-1045 (Protein NYNRIN), 16-mer library wild type / NSP3 UBl1 (ORF1ab Nsp3a Ub1, residues 819-925) (parent)
chain 1: EAPSLSEEILRALSLH
chain 2: APTKVTFGDDTVIEVQGYKSVNITFELDERIDKVLNEKCSAYTVELGTEVNEFACVVADAVIKTLQPVSELLTPLGIDLDEWSMATYYLFDESGEFKLASHMYCSFY
B2: KIAA1671 peptide 600-615 (Uncharacterized protein KIAA1671), 16-mer library wild type / MDM2 SWIB (MDM2 SWIB/MDM2 domain, residues 17-125) (parent)
chain 1: TPEDDRSFQTVWATVF
chain 2: SQIPASEQETLVRPKPLLLKLLKSVGAQKDTYTMKEVLFYLGQYIMTKRLYDEKQQHIVYCSNDLLGDLFGVPSFSVKEHRKIYTMIYRNLVVVNQQESSDSGTSVSEN
B3: TET3 peptide 458-473 (Methylcytosine dioxygenase TET3), 16-mer library wild type / NSP3 SUD-M (ORF1ab Nsp3c SUD-M, residues 1356-1493) (parent)
chain 1: DPMAELEQLLGSASDY
chain 2: LPSIISNEKQEILGTVSWNLREMLAHAEETRKLMPVCVETKAIVSTIQRKYKGIKIQEGVVDYGARFYFYTSKTTVASLINTLNDLNETLVTMPLGYVTHGLNLEEAARYMRSLKVPATVSVSSPDAVTAYNGYLTSS
B4: AZIN2 peptide 1-16 (Antizyme inhibitor 2), 16-mer library wild type / NSP3 ADRP (ORF1ab Nsp3b ADRP, residues 1023-1192) (parent)
chain 1: MAGYLSESDFVMVEEG
chain 2: not shown
B5: ICA1L peptide 453-468 (Islet cell autoantigen 1-like protein), 16-mer library wild type / NSP16 (ORF1ab Nsp16, residues 6799-7088) (parent)
chain 1: MSAWFNLFADLDPLSN
chain 2: SSQAWQPGVAMPNLYKMQRMLLEKCDLQNYGDSATLPKGIMMNVAKYTQLCQYLNTLTLAVPYNMRVIHFGAGSDKGVAPGTAVLRQWLPTGTLLVDSDLNDFVSDADSTLIGDCATVHTANKWDLIISDMYDPKTKNVTKENDSKEGFFTYICGFIQQKLALGGSVAIKITEHSWNADLYKLMGHFAWWTAFVTNVNASSSEAFLIGCNYLGKPREQIDGYVMHANYIFWRNTNPIQLSSYSLFDMSKFPLKLRGTAVMSLKEGQINDMILSLLSKGRLIIRENNRVVI

Variants of: B1
Assay: not given
Conditions: with NSP3 UBl1 (ORF1ab Nsp3a Ub1, residues 819-925); bait immobilised on MaxiSorp plates (10 µg), library pre-cleared on GST, 2 h binding at 4 °C, five washes; one round per day, days 1-4; value from days 2 and 3; keep out of graded; scale: average fractional NGS count over selection days 2 and 3

chain 1 R11P and chain 1 L15W are the same in screen value: 0 for the first, 0 for the second.

chain 1 E8P and chain 1 E8N are the same in screen value: 0 for the first, 0 for the second.

chain 1 S4V and chain 1 S4M are the same in screen value: 0 for the first, 0 for the second.

chain 1 L5N and chain 1 L5H are the same in screen value: 0 for the first, 0 for the second.

In the case of chain 1 L5G, the screen value is reported as 0.

Variants of: B2
Assay: proteomic peptide phage display deep mutational scan (ProP-PD DMS): M13 P8 16-mer library selected against immobilised GST-tagged bait for four days (rounds), NGS of the eluted pools per day and pseudo-replica
Conditions: with MDM2 SWIB (MDM2 SWIB/MDM2 domain, residues 17-125); bait immobilised on MaxiSorp plates (10 µg), library pre-cleared on GST, 2 h binding at 4 °C, five washes; one round per day, days 1-4; value from days 2 and 3; keep out of graded; scale: average fractional NGS count over selection days 2 and 3

Going from chain 1 F8K to chain 1 F8Y, the screen value rises from 0 to 1.9e-05.

Compared with chain 1 P2T, chain 1 P2I is lower in screen value: 0.000455 for the first, 0.000159 for the second.

First: chain 1 P2A
Second: chain 1 T14G
The screen value of the first is higher: 8.35e-05 for the first, 5.64e-05 for the second.

Compared with chain 1 T14A, chain 1 T14S is higher in screen value: 2.89e-05 for the first, 0.000516 for the second.

Compared with chain 1 V11E, chain 1 V11F is higher in screen value: 0 for the first, 0.000216 for the second.

First: chain 1 V11M
Second: chain 1 V15G
The screen value of the first is higher: 0.000226 for the first, 0 for the second.

Compared with chain 1 V15N, chain 1 A13R is higher in screen value: 0 for the first, 5.94e-05 for the second.

Compared with chain 1 D4Q, chain 1 D4N is lower in screen value: 0.000505 for the first, 1.9e-05 for the second.

Compared with chain 1 T10Y, chain 1 T10M is higher in screen value: 0.000166 for the first, 0.00046 for the second.

Compared with chain 1 T10Q, chain 1 T10P is lower in screen value: 0.000116 for the first, 1.43e-05 for the second.

Going from chain 1 T10I to chain 1 W12D, the screen value falls from 0.000209 to 0.

Compared with chain 1 S7P, chain 1 Q9Y is higher in screen value: 2.82e-05 for the first, 0.000186 for the second.

Going from chain 1 Q9I to chain 1 F16E, the screen value falls from 0.000133 to 0.

First: chain 1 F16S
Second: chain 1 F16Y
The screen value of the first is higher: 0.000197 for the first, 0 for the second.

Compared with chain 1 E3S, chain 1 E3N is lower in screen value: 0.00105 for the first, 4.32e-05 for the second.

First: chain 1 R6W
Second: chain 1 R6I
The screen value of the first is higher: 0.0002 for the first, 0.000114 for the second.

chain 1 R6T was tested, and the screen value was 4.17e-05.

Variants of: B3
Assay: not given
Conditions: with NSP3 SUD-M (ORF1ab Nsp3c SUD-M, residues 1356-1493); bait immobilised on MaxiSorp plates (10 µg), library pre-cleared on GST, 2 h binding at 4 °C, five washes; one round per day, days 1-4; value from days 2 and 3; keep out of graded; scale: average fractional NGS count over selection days 2 and 3

chain 1 S12I and chain 1 S12K are the same in screen value: 0 for the first, 0 for the second.

chain 1 S12Q and chain 1 S12R are the same in screen value: 0 for the first, 0 for the second.

chain 1 S12E and chain 1 S12G are the same in screen value: 0 for the first, 0 for the second.

chain 1 A4L and chain 1 A4N are the same in screen value: 0 for the first, 0 for the second.

chain 1 E5Q and chain 1 E5K are the same in screen value: 0 for the first, 0 for the second.

chain 1 Y16A and chain 1 Y16H are the same in screen value: 0 for the first, 0 for the second.

chain 1 M3Q and chain 1 M3T are the same in screen value: 0 for the first, 0 for the second.

chain 1 M3S and chain 1 M3N are the same in screen value: 0 for the first, 0 for the second.

chain 1 S14W and chain 1 S14I are the same in screen value: 0 for the first, 0 for the second.

chain 1 S14F and chain 1 A13D are the same in screen value: 0 for the first, 0 for the second.

chain 1 A13E and chain 1 A13V are the same in screen value: 0 for the first, 0 for the second.

chain 1 A13N and chain 1 L10P are the same in screen value: 0 for the first, 0 for the second.

chain 1 L10Q and chain 1 L10R are the same in screen value: 0 for the first, 0 for the second.

chain 1 L10T and chain 1 G11H are the same in screen value: 0 for the first, 0 for the second.

chain 1 G11W and chain 1 G11S are the same in screen value: 0 for the first, 0 for the second.

chain 1 G11I and chain 1 G11A are the same in screen value: 0 for the first, 0 for the second.

chain 1 D15N and chain 1 D15G are the same in screen value: 0 for the first, 0 for the second.

chain 1 D15K and chain 1 L9Y are the same in screen value: 0 for the first, 0 for the second.

chain 1 L9N and chain 1 L9T are the same in screen value: 0 for the first, 0 for the second.

chain 1 L9A and chain 1 P2D are the same in screen value: 0 for the first, 0 for the second.

chain 1 P2R and chain 1 P2A are the same in screen value: 0 for the first, 0 for the second.

chain 1 P2W and chain 1 P2H are the same in screen value: 0 for the first, 0 for the second.

chain 1 E7I and chain 1 E7T are the same in screen value: 0 for the first, 0 for the second.

chain 1 E7G and chain 1 E7K are the same in screen value: 0 for the first, 0 for the second.

First: chain 1 E7Y
Second: chain 1 E7N
The screen value of the first is lower: 0 for the first, 1.67e-05 for the second.

chain 1 Q8T and chain 1 Q8R are the same in screen value: 0 for the first, 0 for the second.

chain 1 Q8S and chain 1 Q8H are the same in screen value: 0 for the first, 0 for the second.

chain 1 Q8P and chain 1 Q8K are the same in screen value: 0 for the first, 0 for the second.

chain 1 Q8M and chain 1 L6R are the same in screen value: 0 for the first, 0 for the second.

chain 1 L6W and chain 1 L6K are the same in screen value: 0 for the first, 0 for the second.

chain 1 L6M and chain 1 L6S are the same in screen value: 0 for the first, 0 for the second.

Variants of: B4
Assay: not given
Conditions: with NSP3 ADRP (ORF1ab Nsp3b ADRP, residues 1023-1192); bait immobilised on MaxiSorp plates (10 µg), library pre-cleared on GST, 2 h binding at 4 °C, five washes; one round per day, days 1-4; value from days 2 and 3; keep out of graded; scale: average fractional NGS count over selection days 2 and 3

First: chain 1 E15Y
Second: chain 1 E15V
The screen value of the first is lower: 0 for the first, 2.58e-05 for the second.

chain 1 E15W and chain 1 E15F are the same in screen value: 0 for the first, 0 for the second.

chain 1 E15K and chain 1 E15M are the same in screen value: 0 for the first, 0 for the second.

First: chain 1 G16W
Second: chain 1 G16M
The screen value of the first is higher: 5.19e-05 for the first, 3.8e-05 for the second.

Compared with chain 1 Y4F, chain 1 S6W is lower in screen value: 1.08e-05 for the first, 0 for the second.

chain 1 S6T and chain 1 S6G are the same in screen value: 0 for the first, 0 for the second.

chain 1 S6Q and chain 1 S6H are the same in screen value: 0 for the first, 0 for the second.

Compared with chain 1 M12K, chain 1 M12P is higher in screen value: 0 for the first, 6.03e-05 for the second.

Going from chain 1 M12Q to chain 1 M12D, the screen value rises from 0 to 6.55e-05.

chain 1 M12W and chain 1 M12G are the same in screen value: 0 for the first, 0 for the second.

Compared with chain 1 L5M, chain 1 V11N is higher in screen value: 1.33e-05 for the first, 1.5e-05 for the second.

Going from chain 1 V11Q to chain 1 V11K, the screen value rises from 1.04e-05 to 2.1e-05.

First: chain 1 V11R
Second: chain 1 S8Q
The screen value of the first is higher: 4.17e-05 for the first, 2.27e-05 for the second.

Going from chain 1 S8D to chain 1 S8N, the screen value rises from 1.43e-05 to 5.33e-05.

First: chain 1 S8F
Second: chain 1 F10D
The screen value of the first is higher: 4.02e-05 for the first, 0 for the second.

Compared with chain 1 F10S, chain 1 F10R is lower in screen value: 1.39e-05 for the first, 0 for the second.

First: chain 1 F10W
Second: chain 1 V13W
The screen value of the first is lower: 2.93e-05 for the first, 4.62e-05 for the second.

First: chain 1 V13F
Second: chain 1 V13N
The screen value of the first is lower: 1.65e-05 for the first, 6.59e-05 for the second.

First: chain 1 V13A
Second: chain 1 V13P
The screen value of the first is lower: 1.13e-05 for the first, 5.36e-05 for the second.

Compared with chain 1 V13G, chain 1 V13E is higher in screen value: 0 for the first, 4.94e-05 for the second.

Going from chain 1 V13S to chain 1 G3T, the screen value falls from 3.26e-05 to 0.

Going from chain 1 G3S to chain 1 G3P, the screen value falls from 2.71e-05 to 0.

Variants of: B5
Assay: not given
Conditions: with NSP16 (ORF1ab Nsp16, residues 6799-7088); bait immobilised on MaxiSorp plates (10 µg), library pre-cleared on GST, 2 h binding at 4 °C, five washes; one round per day, days 1-4; value from days 2 and 3; keep out of graded; scale: average fractional NGS count over selection days 2 and 3

chain 1 A9N and chain 1 W4A are the same in screen value: 0 for the first, 0 for the second.

chain 1 L11P and chain 1 L11W are the same in screen value: 0 for the first, 0 for the second.

Compared with chain 1 L11I, chain 1 A3L is lower in screen value: 1.35e-05 for the first, 0 for the second.

Going from chain 1 A3P to chain 1 A3D, the screen value rises from 0 to 4.01e-05.

Going from chain 1 D10Y to chain 1 F5L, the screen value falls from 6.76e-05 to 0.

First: chain 1 F5W
Second: chain 1 S2D
The screen value of the first is lower: 0 for the first, 0.00136 for the second.

chain 1 S2L and chain 1 N6R are the same in screen value: 0 for the first, 0 for the second.

chain 1 N6K and chain 1 P13V are the same in screen value: 0 for the first, 0 for the second.

chain 1 S15R and chain 1 F8Y are the same in screen value: 0 for the first, 0 for the second.

chain 1 L7S was tested, and the screen value was 0.
